Publication PMC7948499, “The molecular basis of the nonprocessive elongation mechanism in levansucrases” (The Journal of Biological Chemistry, 2020)
Changes are numbered by the printed parent chain. Names may count otherwise.

B1: SacB (Bacillus subtilis levansucrase, LS) (Bacillus subtilis subsp. subtilis str. 168) (protein)
chain: KETNQKPYKETYGISHITRHDMLQIPEQQKNEKYQVPEFDSSTIKNISSAKGLDVWDSWPLQNADGTVANYHGYHIVFALAGDPKNADDTSIYMFYQKVGETSIDSWKNAGRVFKDSDKFDANDSILKDQTQEWSGSATFTSDGKIRLFYTDFSGKHYGKQTLTTAQVNVSASDSSLNINGVEDYKSIFDGDGKTYQNVQQFIDEGNYSSGDNHTLRDPHYVEDKGHKYLVFEANTGTEDGYQGEESLFNKAYYGKSTSFFRQESQKLLQSDKKRTAELANGALGMIELNDDYTLKKVMKPLIASNTVTDEIERANVFKMNGKWYLFTDSRGSKMTIDGITSNDIYMLGYVSNSLTGPYKPLNKTGLVLKMDLDPNDVTFTYSHFAVPQAKGNNVVITSYMTNRGFYADKQSTFAPSFLLNIKGKKTSVVKDSILEQGQLTVNK
notes: sacB gene of strain 168 in pET22b, expressed in E. coli BL21(DE3); residues 32-471 modelled in crystal
B2: SacB (Bacillus subtilis levansucrase, LS) (Bacillus subtilis subsp. subtilis str. 168; N242A) (protein)
chain: B1 chain with N213A
notes: as for B1
B3: SacB (Bacillus subtilis levansucrase, LS) (Bacillus subtilis subsp. subtilis str. 168; F182A) (protein)
chain: B1 chain with F153A
notes: as for B1
B4: SacB (Bacillus subtilis levansucrase, LS) (Bacillus subtilis subsp. subtilis str. 168; Y237A) (protein)
chain: B1 chain with Y208A
notes: as for B1
B5: SacB (Bacillus subtilis levansucrase, LS) (Bacillus subtilis subsp. subtilis str. 168; Y187A) (protein)
chain: B1 chain with Y158A
notes: as for B1
B6: SacB (Bacillus subtilis levansucrase, LS) (Bacillus subtilis subsp. subtilis str. 168; F182Y) (protein)
chain: B1 chain with F153Y
notes: as for B1
B7: SacB (Bacillus subtilis levansucrase, LS) (Bacillus subtilis subsp. subtilis str. 168; K363A) (protein)
chain: B1 chain with K334A
notes: as for B1
B8: SacB (Bacillus subtilis levansucrase, LS) (Bacillus subtilis subsp. subtilis str. 168; F182W) (protein)
chain: B1 chain with F153W
notes: as for B1
B9: SacB (Bacillus subtilis levansucrase, LS) (Bacillus subtilis subsp. subtilis str. 168; D117A) (protein)
chain: B1 chain with D88A
notes: as for B1

Molecular target: T1, SacB (Bacillus subtilis levansucrase, LS) (Bacillus subtilis, UniProt P05655, D86A/E342A)
T1 construct: sacB gene of strain 168 in pET22b, expressed in E. coli BL21(DE3); residues 32-471 modelled in crystal
T1 sequence (P05655 30-473 D86A/E342A): B1 chain with D57A, E313A
Experiment: X-ray crystal structure, […] Å, cocrystallization
Assay type: binding
Settings: catalytically inactive mutant; pH 6.0, 18 °C; active site (OB1, six fructose units modelled as levanhexaose); second site OB2 about 20 Å away (levanhexaose in chain A, levanbiose in chain B)

Row | Molecule | X-ray crystal structure, 2.05 Å, cocrystallization
1 | OC[C@H]1O[C@@](CO)(OC[C@H]2O[C@@](CO)(OC[C@H]3O[C@@](CO)(OC[C@H]4O[C@@](CO)(OC[C@H]5O[C@@](CO)(OC[C@H]6O[C@@](CO)(OC[C@H]7O[C@@](CO)(O[C@H]8O[C@H](CO)[C@@H](O)[C@H](O)[C@H]8O)[C@@H](O)[C@@H]7O)[C@@H](O)[C@@H]6O)[C@@H](O)[C@@H]5O)[C@@H](O)[C@@H]4O)[C@@H](O)[C@@H]3O)[C@@H](O)[C@@H]2O)[C@@H](O)[C@@H]1O [6,6,6,6,6,6-kestooctaose] | inactive double mutant of SacB (D86A/E342A) cocrystallized in the presence of a levan-type FOS

Substrate: OC[C@H]1O[C@@](CO)(O[C@H]2O[C@H](CO)[C@@H](O)[C@H](O)[C@H]2O)[C@@H](O)[C@@H]1O
Experiment: initial rates, reducing sugar release by dinitrosalicylic acid
Assay type: biochemical, Bacillus subtilis
Settings: 50 mM acetate pH 6.0, 0-300 mM sucrose, 1 mM CaCl2 in enzyme buffer

Row | Molecule | Km | kcat
2 | B1 | 9 mM | 236.7 s⁻¹
3 | B2 | 19.9 mM | 
4 | B3 | 14.5 mM | 
5 | B4 | 10.6 (1.7) mM | 256.3 (9.3) s^-1

Substrate: OC[C@H]1O[C@@](CO)(O[C@H]2O[C@H](CO)[C@@H](O)[C@H](O)[C@H]2O)[C@@H](O)[C@@H]1O
Experiment: as above
Assay type: biochemical, Bacillus subtilis
Settings: 50 mM acetate pH 6.0, 0-300 mM sucrose, 1 mM CaCl2 in enzyme buffer
Remark: another data set of the same source
Experimental: initial rates, reducing sugar release by dinitrosalicylic acid on SacB (Bacillus subtilis levansucrase, LS) | were expressed and purified, and their kinetic parameters were determined (Fig. 4B)

Row | Molecule | Km | kcat
6 | B5 | 8.4 (0.9) mM | 199.2 (4.4) s^-1
7 | B6 | 10.3 (0.7) mM | 162.2 (2.6) s^-1
8 | B7 | 10.5 (2.2) mM | 95.4 (2.2) s^-1
9 | B8 | 10.5 (1.3) mM | 129.4 (3.6) s^-1
10 | B9 | 13.2 (1.7) mM | 171.2 (5.7) s^-1
